Data reported in the DeepSol protein solubility set.

Test: soluble on expression in E. coli; label from the status in PepcDB or PDB records

Sequence	soluble on expression in E. coli
MRNFKKSDKLNNVSYDVRGPVLEEAERMQEEGIRILKLNTGNPAPFGFDAPNEIVRDMIVNVRDSEGYSDSKGIFSARKAIEQYCQLKKFPNVTINDIYTGNGVSELITMCMQGLLNNGDEVLVPMPDYPLWTASVSLAGGTPVHYICDEQAEWYPDIDDIKSKITSNTKAIVIINPNNPTGALYPKELLLEIVEVARQNDLIIYSDEIYDRLVMDGLVHVPIATLAPDLFVVTLNGLSKSHRVAGFRCGWMVLSGDKSRVKGYIEGLNMLASMRLCSNVLSQQIIQTALGGYQSVDGLLLPGGRIYEQREFIYNAINDIPGLSAVKPKAAFYIFPKIDTAKFDIYDDEKFVLDFLHKHHILLVHGGGFNWQQPDHFRIVYLPKMEDLKTTADKMREFLSTYKQK	not soluble
MSRRSSSSDSAVYVNFLERERRADVEKAARLYETRRDRVEPSYVFPAPSGEKRVGPNSNTGQKGVVGSYPVSIDYLTVVFSYARLAEAGYFDEPRFLLYLLFGLSVDDVIVGSHTSVRWHFYNSSASIIDSNGDLVGKIGWDGNADSYCISLTGSACRYIHDWSKVKRSLASLDARITRCDVAYDDYDGILGTVRHHEALAREHLAPAGGCLLFSSGGTPPRTRFLDDHGGGSGCTLYVGQRGHKQLCIYEKGKQLGVAESPWVRYEVRLYAKHAVIPFDLLEEPMRYLRGSYDYLCQLFSSVVVSPVSRIRTVVKHVEATGEALVRWLRRQVGPALGVLRQALGCGFSDFIVDRVEREGLPSRFRRICRGGDLLAYLRETLIDCSVGVCV	not soluble
GRDFRFSISPNFTWVKNAVEKLANGATEEINNNRIVGQPIGIIYGYETDGLFVDQAEIDAAPEQLVSKSGLKPGYVKYKDISGPDGVPDGKVDAQYDRTVLGSTTPKFYYGLNLSASYKGFDFSALLQGLGGHKRLIGSYMAYAFYNGGQIQRWQAESCWKEENPDKWAEYPRLETLNMNDTNLQTSDYWVRNASFLRVKNIQIGYTFPKAWTKKIGLENVRVYVSGQNLFSFNSFYKGWDPENEIGTGDSPSYYPVNSIYSFGFNFKF	not soluble
MDTSQKYRSNNEVDSPQIEHDKQALPSIESLYWGLQQNQQIQGIEQTGEPNGDNQPPQLVIDQLSYDQQQQQPKQNCFDTHGNMDDNRGLYNLPQGAENGSGHLVATESHQLHPPNYNLQQAQTPPPTRHSQYVDAAPQAYGSGQLVPENQRQPESAPDRPYQIMNVGCNPQSAQQHAQMEIPTMSHQLIGTCHNWQSGSQQGTSQNRKDFAGMQSCYGKDQHHQSALNGYHQLQAQPNLYPQHVSNQRPQWAMDQLGYYQQHQQQGPTWSDQNGNEGDNGGLYNHPQGAENGSGHLAATESHQLLPPSNNLQQVQIPAPTRHSQYVGASHLAYGSGQLVPENQLQPEPAPDRSYRKMNVGCNSQYAQQHAQMDQVIGTCHNCQSDSQQGTSQNRDNLAGMKGCCVKDQYHEPAPSGYHPPQAQSNCYPNHPPNPNMNAGDQDRQHVQLNFYTDPGFQQNSHVPYEMQQGFQTTGMQGSYQQNNQPELLFDSNNGNQTVNNAPNGNYQEPVYPLLQEGPTWNNNDNHDYFPSDDSMSQTSQEPVSVESIRKKTKRAKNKLEARKSLQKKKDDLKASRKSWEEVKINHNNILSSNNSNEENIKTAFDQVLYPCFTNQQVIGTFNIIRSYDEVQEGFAQFENDKQNIISKVDYLMKTDRNLKKLRMAKEVSEKQWEQFETDKKNRKEDDKKNKINGGNKLNGKTKIVSSITIATRCSRSKDKKETDAFKHDAKVLKFESSKQTQIKLCLKKYCDKFYPGVRMLLQHNWKFLRDNALHSGQSVQLEKLIECLKTFHLTEHAEKEHNLENS	not soluble
MVRDMKHTVEVMIPEAEIKARIAELGRQITERYKDSGSDMVLVGLLRGSFMFMADLCREVQVSHEVDFMTASSYGSGMSTTRDLKILKDLDEDIRGKDVLIVEDIIDSGNTLSKVREILSLREPKSLAICTLLDKPSRREVNVPVEFIGFSIPDEFVVGYGIDYAQRYRHLPYIGKVILLDE	soluble
MFGLPMYNVWRAEQAGKAEFSKAEQNRRIKIEEAKANLEAEKLNAKAEIERAKGAAEAIRIENNSLTPTYIQYLWVRQQGSLNDKTVIYIPTEANLPLLEAGRTAGGLKRAECPTE	not soluble
MGSDKIHHHHHHMLQAQLKPANLVVTCNQTHSTMAQTDAPSTPAKPVIHAKQTAESGSSAQLRHLSRYLVRNLGMLNAAFGDLPLSPVQAHALFEIGKQPLTIKELACKLSIDKSNASRAIKHLIDKNLAQSQIHPRDSRCLVVQLTPAGKKLLLKLDTQQNQLFQEILAQLTPAQTSQIEEALMLYNQAVHNAKHQSGCHIRQATAQDDAAIAKVIRDVSAEYGLTADKGYSVADPTLDCLSQIYSQAGANYWIIELDGRILGGAGIAPLANNEGVCELQKMYFMPEIRGKGLATRVALMALDFARETGYQSCYLETTAALNEAVKLYEKLGFVHLSAPLGNTGHDACEMPMLLELNQ	not soluble
MEKQEEEDVKRRQRQKAATSLGFLHWEELKNHGDLSKVALNIALTTLVDDASTGFCIMNLVNLIVLRESSQGYLLTYEGKLASLASATYVKAFISLWVLEDAERHAWSFRTFSLTFPLDDPILDTFLELTGVTEAGEFVYAPTTLQSPFHALYFDPQRNSFRRVIYEGLADDEFRRRNRLGYERHHILPNHIESLISL	soluble
MDNVSNVRTGGCHCGAVRFEVTLSDGFDSIRRCTCSYCRMRGAVVAMAEMGGIKILQGEEVLTTYRFHTRAAQHFFCSRCGIYTHHQRRSNQNLYAVNVACLDGVSPFDFTEVPVMDGINHTNDTGQPTRRAGTLRFIASE	not soluble
MGSDKIHHHHHHMSDYLRGKRVVDPVLTSVARGYKNAAFVGESIFPIVQVEKEGIVVPLFGKGAFVEYDTERAVGAESNVLLREKSSSMDLVLNEHDLAAPVDYREQAESLFNEEAKAIRRATNGVNLKRELYAARLAQDPKVYLAASKKTLAAAERWANGKGEPVTVIEAGIEAVRNATGLRPNLLTMGASVMSVLRYHPAIQAQIGANERKRITAEILQDIFQINKVLIGEPVSSPDGKKAPIDVWADNLMLHYVSPPQPGTESADENEPSFGYTFRRKGMPVSDKYPGVGGKVSYARFTDIYKVAVVGGDAGYLITNILK	not soluble
MGHHHHHHSHMSEFMQRFADLRDRKAYAEIVDALPYVKLMGTSMAEDEQGELRFELPFLQRNVGNTTLPALHGGLIGGFMESAAMIHLMWNRESLEAPKIVDFSLDYLRPGRPQTLFAQCEITKQGKRVAHVLIEAWQDDRSKPVAVARAHFLLTN	soluble
MNSLFLLLFICFNSGCGRKYYEEDIDRAFRSAEAEILPFRPHNVFSSDDSLMLNYSIAALAAIKMAQKTRDPRQKLPHHLCPLKKYNCLYGKYRHSDGRCTNIFFALSGSAYSSFSRRIPANYDDDISTPRLHGYRNGLLPPPAVVEKQIARTPAIYAISLTNTFLEFSEFLYNDLVKFVRLQDGLGCCGTGKSGECLNFGENFLDCYIRSAPSPRAHCSLGRREQMNLATAFLDAGPIYQDLRDTSKGKISSSFTLESTTKSSIHSLLIDEHNWVVDQIQKKFPDMGLELIFEEARKFVIAELQHITFEQFLPILLGDETMKKYDLRASHCDGGSCHEVEANTLNEFGSAVGLFYKFMTSSDKIYNPSLYSTSDFSTSPTSSSSKSPNVAEIISKGRDHGIATYSQWRKECGGGELKTYEDLIDLIDSNILKSLRDLYPDVLDVDLILLGIAENPVYGSLLGPTFGCIMALQFQKTKFGDTYWYTNKLTEDQLEEVKKTSISAMMCRHQKTSIIQKDVFKAADNFQNIPIFCNSSVFAKPDFSKWVETPEKHKNEQFDDILGECILEVFEARNRQRPATLQEGLHNSVALKSYGSMMLAKDEAVNEANVSLILLEATKKLVKLKHIELDSIQSVNIGEDFGKKSDSQCNPKNLPCDSTNPYRSYTGWCNNLETPSLANTFRELRRLLPPAYEDGIDLPRSKTITGSRLPSPRVISNMVHHAKKIEHVKYSHFVMEFGQFIDHDITHSPVDQNSDGTALNCSRCDSGRFVSPSCFPIPVPVNDVHFEPFSCLSFVRSLPAQKTLGYRNQMNQVSAYLDGSVMYGSTKCEGDRLRTFQDGKMKTTQTSRAPRHYGITLSQSDESEQDGCVSAPDAPCFIAGDDRNSQQTLLIAVHSVFHREHERITTTLKEINPNWDDEKIYQETRKLISAEFAHIVYNEYLPIIIGQKLIDDYDLRPRQDGYYDGYENCDASILQPFATAAFRFGHSTVTRFTPMQETVHDPATCVVDLASDFLNMSKIYDNEAVEQILGGMHGKHQMMTDRFVDDAIRNFLFSDRGRRGTGLDLISINIQRGRDHGIPPYNHYRSFCGLSRLTSFYSIFSDINQDGLTAIGKVYESPDDIDLFTGIVSEKTIPGGIVGPTAACIIAEQFRRLKKCDRFYYENGEDHSKFSASQLKEVRKTSMSALICANTKVPKISKDVFSVPDPFRYS	soluble
MPAAPLCSPFPSPPPSFHTASLPFSIHAHHSPLPCDLDPPLYLAETVSLLEEWGPPSSCPMQCKLTSHPARLTHLPPCLWGFAVALKPSWAGLAPSLLPPPRMSLCRPLSFLRHQCPWLPWQAHQGLVPWSPSMVAAACIVSPSGHCRCQPFIPHVFLGHGGLTSVSGECG	soluble
MQWQELYRQRVCSADEAVVDSLKPGTKVVFGHAAAAPVRFSQAMYRQREKLENITVFHMLYFGDAPHLAPEMRSHVHPTLNFLEGNSRPASRDRRVDFIPCHFHEVPELFRQGFFPLDVAVVQVSTPNEEGYCSFGVSCDYTKAAAECAPVVVAEVNKQMPFIGGENLIHISKLTHIIEVDEPIAEVLPPAISDLELRIGQNCASLIKDGDTLQLGIGGIPDAVLRALEGHKDLGIHTEMFTDGVMRMIRKGIINGKKKTLHPEKVVTSLIFGSKELYDFVNNNPVIECYPGDYINNPDVIGKNDRMVSINSCLEMDLMGQAASESIGYEQFSGSGGQVDFLRGAKRSKGGISIMAFPSTAKKGTESRIVPILKEGACVTTGRNEVDYVVTEYGVARLRGATLRQRAEALTAIAHPDFRPALEEEIRRRFELEHHHHHH	soluble
MAKYFDIDDILIEEEFVPVLFHKTANGVTIDPSAETNCVSLLIPSAKAEQGSKVELPFWLAHELHLRQAVTINLPPCFDQKTRLEVQADAAYVDLRSRCPYFYEFGCKIEPLVTDRTLGILLSTAFKIRYKEALTKVYTAAHITASKYLSFLTKEETNLYEAAHLSMTAFKKWRTGGPRFQRASILGRKRKDSN	soluble
GMSAPVTLINPFKVPADKLEAAIEYWEAHRDFMAQQPGYLSTQLHQSIDEGATYQLINVAIWQSEADFYQAAQKMRQALGHVQVEGLCGNPALYRVIRT	soluble
MGSDKIHHHHHHMTEITTLSQFLTTAKTQFQVYDLGRRVQHIDMLAFHQIESLATPYPYPIQGHAQFAIVFWDASQQHFIWFLKLALDEQGLLSPAPRSQFIEMVLSALGQDPTQPLSNEQQEHLANNPFSFTPSQEKLAVFNALVRKQLGQHASVQYEFAMQYLSGQIAPSQWQHIGIQGIADVCVRANELDHEAKLLTSFDSAAIEVQIALCQCLEHVQISPLLANKILNKLTAAEPEHKAYFLRALASNSELSQKALAHLHQGSNLDANTLISIAGRNWTVLKQELSRSIYLEALALQPQTFFNQIFADIVAIPSLRNLLLGELRNPNRSIQLSQAIGGLFKAASK	not soluble
MKLEIGYNHPFEIRKERYESDHVCNFSVLYISDLHLTVFSKDICTRLSKCIQELNPTIIILGGDYIDCRNGWDYLSTFFKFLSARKNVFSIAGNHDYFYGIDEIKKLIESNNIHWLENQSAVVNIQEYNILLTGNNETQSSIPADFNILCLHKPVSLDAFKIPYHIAFAGHLHGCQCVFWQNENGLYPGRFFYTFNFLRRQVKNCLYLISKGLGDTLPIRFNCKKDIIFVEIKNNSNKLEHHHHHH	not soluble
